{"source": "the DeepSol protein solubility set"}
{"test": "soluble on expression in E. coli; label from the status in PepcDB or PDB records"}
{"sequence": "MNQNQNKKTKIVALSMMNSQTSGNPSRGTTKFESYTFDYWQYIDTLVYWGGSSGEGIIVTPSADVIDEAHSNGVPVLGTIFLPPKEYGGKVDWVKTMLKKDEQGQYPFASQMVKVAKTYGFEGWFINEETQGLNADDAANMKALIQQVKKEDSSLQIMWYDAMTKDGKVDWQNQLNDQNATFVQDKAADAMFLNFWWTQNNLADQKLLEKSNLYAKNHNIDPYNIYAGIDVQAKDVQTPVKWNLLEKGNQATQTSIGLYAASATYTNASNWDDFQNRESAFWVNQKADPRQVDHSVNESWTGLSKYVLEKSAISGNEFNTNFNLGNGYNYFKAGQKISEMDWNDRSLAGILPSYRWIIDNEGKNKISPSFDFANAYNGGNSLKFMAEHLDAGKSSNITLFASDLKIAMGAKFSVSMRSDQALKVSAILELANGQKVSIAGDKSLTENWSKLEHHHHHH", "soluble on expression in E. coli": "soluble"}
{"sequence": "MGSDKIHHHHHHMVSKLLALEAYPKLKDIDFRLLRAVELNMRHHKWVPLEDIARFARMDLESASYRLGKLDKLGLVIRRSDIGYIGYQLTIHGYDALAIRAFAKKGVIEAISTTHIGVGKDADVYVAITPQGEKVAIKFNRIGERTSARKAYYHSDVFADKHHKSWLYVSRLIAKKEHEALVLLSSFAKVPKPIAWNRHAIVMEFIDGVELAELRDTDLTKEEAEEILGKVLDEYEKIVKFGIVHGDMSEFNIVITKDNDILIIDWAQYLTCANPESLGLLKRDISVLLNAFRRRWGVKRDFEEEWKRFYEAWQIGRREKEES", "soluble on expression in E. coli": "not soluble"}
{"sequence": "GPGSMMILPHAEEVELRRGSSPATITSTTGRVNRVAVDTSSEENQEAVSQDRLEGRDDAGKSPTTSASPGTSSKKDRFQATSAQVKGALSTPRRAVYEFHDMFGFLVTEEEKAAEDYERRNNGYSRAYLDKWEYMMTHWANVRQDTLKRYCRRGVPQPKRCAVWQHLLQSWGMKDRFPGVYMRLHSQPLDSKDLADVIARDLDRTFPTNRLFSVKSGQGQQILRRLLHAYANYNPGVGYCQGMGFLAATLILQVEEEEDAFWAFVAVMENAKYNMKAVFAPSFPQLQCAFYVFEALMRQKMPKLYAHLHDRHPIPPSFYAVHWFMTIFTYHFNFGLVSRIWDMFFCEGWKPVYRIALALLKIEERRLLSLNTDTELLLVLKGIQESKRPVELLKTALKIRFKSAYMNQLMAEFNAQPS", "soluble on expression in E. coli": "not soluble"}
{"sequence": "ETVQVNLPVSLEDLFVGKKKSFKIGRKGPHGASEKTQIDIQLKPGWKAGTKITYKNQGDYNPQTGRRKTLQFVIQEKSHPNFKRDGDDLIYTLPLSFKESLLGFSKTIQTIDGRTLPLSRVQPVQPSQTSTYPGQGMPTPKNPSQRGNLIVKYKVDYPISLNDAQKRAIDENF", "soluble on expression in E. coli": "soluble"}
{"sequence": "MGRSNKHDVTSTTPSLAIVQANPHPHKDVVPTEAPIVSSYNDHIRPLLDTVDKLRNLNVMQEGIQLPTIVVVGDQSSGKSSVLESLAGISLPRGQGICTRVPLVMRLQRSRSPEPEIWLEYGDKIVPTDEEHIAQTICAATDVIAGSGKGVSDTPLTLHVKKAGVPDITMVDLPGITRVPVNGQPENIYEQISRMVMKYIEPQESIILNVLSATVDFTTCESIRMSKQVDKTGERTLAVVTKADMAPEGLLQKVTADDVSIGLGYVCVRNRIGEETYEEARMQEELLFRTHPMLSMINDEIVGIPVLAQKLTQIQGMMISRCLPEIERKINVKMEISVLEFNKLPIVMASTGEALMSLMDIIGSAKESLLRILVHGDFSEYPNDQKMHCTARLAEMLNRFSDNLQAQPQAVTEEFLMDEIKVLEERKCIGLPNFIPRSSFLAILSQHVDGIQDKPVEFIKEIWDYIEVVLSSVITTYSDNFPQIQSSIKRAGRNLMSRTKERSKTTSQQNFINSVLHDENKPENFALPGFGDVKISHLRKYHAHLLQQAFDMKMRITSYWTIVLRRVVDNLALYLQFSVKNLVNSQFQKEIVAEMVDPRAGGGIDRMLEESPSVASKREKLKNSLKLLKESKDVVAAIVDQNSVYADR", "soluble on expression in E. coli": "soluble"}
{"sequence": "MGSDKIHHHHHHMSTLLRQHAEQQFAEELHELKQNETNPVPENWEMSPQSVVTYLMGGKLKNGFEVSPKYIGNRRLMEIAVATLVTDRALLLYGLPGTAKSWVSEHIAAAISGDSTLIVQGTAGTGEEAIRYGWNYARLLAEGPSVGALVQTPVMKAMQEGKIGRIEELTRIGSDVQDTLITILSEKTLPIPELNTEVQAIRGFNIIATANNRDKGVNDLSSALKRRFNTVILPLPDSIDEEIDIVRRRVESFEKVMQLPAEKPALEEIRRVVTIFRELRQGATADGKTKLKTPSGTLSTAEAISVVNNGLAMAGYFGDGEIHAEDLVSGILGAVVKDPVQDKVVWQEYMETVVKNRDGWKDIYRASRDMI", "soluble on expression in E. coli": "not soluble"}
{"sequence": "LGTERQREHPFIVTEPGEVARGKKNGLDYLFHLYEQCREFLLQVQTIAKDRGEKCPTKVTNQVFRYAKKSGASYINKPKMRHYVHCYALHCLDEEASNALRRAFKERGENVGSWRQACYKPLVNIACRHGWDIDAVFNAHPRLSIWYVPTKLRQLCHLERNNAVAAAAALVGGISCTGSSTSGRGGCGGDDLRF", "soluble on expression in E. coli": "soluble"}
{"sequence": "SLQKFKWSNIYCKEADCVRILLVADPQILGKTFDTHFYAGLANYDSDRYLAWYYEQAVEHVQPDVIIFLGDLMDEGTDSTEMHFEEYYTRFGAIFPTHPTARSIYIPGDNDIGGEGRQPLNPIAKRRFRQYFSERPAWVINDNLTIYNINRITLEMTLNDPRMVDSTGSDVSDRYLRIFVSHMPVLDVPSSFTYTAIHNLKPNVIFSAHLHVSQFARIHRSRLKTVQYKPLSQDKRTAYKVHSFDLSYHQDTQELLEIIVPTCSYRMSVPDIGYGYAAIDGTTLKYTVLWTTRRFYQLISYV", "soluble on expression in E. coli": "not soluble"}
{"sequence": "MGHHHHHHSHMTSETPDYLLKYAAISSSEQRQSYKNDFNAEYSEYRDLHARIERITRRFTQLDAQLRQLSQGSEEYETTRGQILQEYRKIKKTNTNYSQEKHRCEYLHSKLAHIKRLIAEYDQRQLQAWP", "soluble on expression in E. coli": "soluble"}
{"sequence": "KHPNNAIIIGDNLDALKLLKSAYSEKIKMIYIDPPYNTGNDEFIYPDNFRQDYQKILREVGLMEIDENGKEIESESLKFFKNTQGSGTHSGWLSFMLPRLKLARDLLKEDGVIFISIDDNECANLKILCDEIFGEDNFVGDFIRKTKSTTNDAKIGLNYQHEFLLCYAKDKNYTNLLGGEKNLENYKNPDNDPNGAWINDNPSAKSGNMKTGYFGVTNPYTNKVDYPPVGMFWRFSQNTIQKHIDEGRICFKKEHKDNERGFIYKRYLKDLKTTQKTFDSLIFSDNCYMNQAATKELLNLGMGEYFTYPKGVEFMKKIILHSTTPNEGDIILDFFAGSGTTVHAVMELNAEDKGNREFILVQIDEEIKEDESAYDFCKKELKSAKPVISDITIERVKRAAQKISQLSKDSGLDLGFKVYTLQDKVQII", "soluble on expression in E. coli": "not soluble"}
{"sequence": "MPKELWPLTGSRLEGSSMADRRRQRRTSKAGVGGRRVEYKRVPLGFIKAIVKTGHVVVEPSEKVRRNPPRGRFQVLLAGDGEVGYVSDVIGPINSPFIVVRVRERGVIEKLSPGAELIMLVPPKKPPRKGAPRRGSSRGRRGFKKGKARG", "soluble on expression in E. coli": "soluble"}
{"sequence": "MSGKTKRLMVMAGGTGGHVFPGLAVAHHLMAQGWQVRWLGTADRMEASLVPQHGIEIDFIKISGLRGKGLMAQLTAPIRIYRAVRQAQKIMRDYQPNVVLGMGGYVSGPGGLAAWLCGVPVVLHEQNGIAGLTNRWLARIAKKVLQAFPGAFPNADVVGNPVRTDVLALPLPAVRLSGREGPIRVLVIGGSQGARILNQTLPLVAASLGEQITLWHQVGKGALPEVSQAYQQAGQAGHLVVEFIDDMAAAYAWADVVVCRSGALTVSEVAAAGLPAIFVPFQHKDRQQYWNALPLEKAGAAKIIEQPQFTATSVSSLLASWDRATLLSMAERARSVAIPDATERVAAEVVAASKSA", "soluble on expression in E. coli": "not soluble"}
{"sequence": "MGSSHHHHHHGGTGENLYFQGGSGAGIKSRERLRRDQERQLRQLPFLYHRVKDLQDTCERLEQELASSHQRVAAFQQEAFALRSLIKFTEHPELAAAAKNDAAKHVLQEEVRELRNQVQRLRREKELSLRQSEEACEAAEFYKELCDQLYEESLRAAEAIAVGGATSGLESVVTPLPNRNVDDMTLAVSTAPSTATSMEAQMRQLHGALELERARSSALVETVSLLHTAMKATTAAGTKRSTPAPDSSAGWAERRREDDTSGICASRSRVFADDTRKSRTRLKRLAAVLRVENRLLTQRVTEVVARNMRCVKEISALKLANKRLELNQRQES", "soluble on expression in E. coli": "soluble"}
{"sequence": "MSLKVTIKDIATICGVSAGTVDRALNNRTGISEKTREKILKTAKELNYRPDYTARSLVMGKTMTIGVVLFDLYNRSFAQLLNAIELKARELGYFIYITLSDKNPENELNCIEHLVNRKVDGIILFTVNKGEQFEANLSKWGIPIITIFNYVSEKWEYIGIQERQAMKEAVDYIASKRYKKFIYISPPLTYLGKNNIYTQEERLNGFYDGLKSNGITSKPLIIKNSEYIKELDNITFSQDGKVAIVCATDLYALEVMNYLKEKGFNIPEQVGVMGFDDIDMLKYITPRLTTVKYPIDEIGRRAIESMVNKINHGHFISTPLLNYQIIKGESIEGHHHHHH", "soluble on expression in E. coli": "soluble"}
{"sequence": "MSLEKFVVQDIQIDGLQRVALGAALLKMPVRVGDSVDSQDVANIIKALYSSGNFEDVKVLRDGNTLMVQVKERPTIASVSFSGNKAIKEEQLKQNLEASSIRVGEALDRTTLSNIEKGLEDFYYSVGKYNATVKAVVTPLPRNRADLKFVFTEGVSAKIQQINFIGNQVFSDEELLSRFNLNVDVAWWNFLADDKYKKQVLAGDIEALRTYYLDRGYLKFQVDSTQVAISPDKKGVYITLNLNEGEPYTVSKVQFRGELMGKEAEFTSLIPFEIGETYNGSAVTRLEESVKKVLGESGYAYPQVRTIPEFDDEKQQVSLVVHVEAGKRVYVRDIRFVGNNSTRDEVLRREMRQMEGSWLNSKDIETGKTRLNRLGFFETVEVQTVRVPGSEDQVDLVYSVKEANSGNVNFGVGYGTESGVSFQVGLQQDNFLGSGNRVGVNAMINDYQKNLTLEYRDPYWNLDGVSLGGKVFYNQFEASEAGIVDYTNESYGTSLTWGFPFDELNRFEFGIGYTHNKIGNLTPYLQVENFLAAQASNIDSGGNLLTDDFDINLSWTRNNLNNSYFPTAGNHQRAFYKMTVPGSDAQYFKLQYDVRQYFPLTKKHEFTLLLRGRLGYGNGYGQTDGKDNLFPFYENFYAGGFTSLRGFGSNSAGPKAVYRDYSGSNNGSDTATDDSVGGNAIALASVELIVPTPFASEEARNQIRTSIFYDMASVWDTEFDYRGKADYGNQYYYDYSDPTNYRSSYGVALQWVSPMGPLVFSLAKPIKKYEGDDEEFFTFTIGRTFEGHHHHHH", "soluble on expression in E. coli": "not soluble"}
{"sequence": "SLIKNGELKPGDKLDSVQALAESFQVSRSAVREALSALKAMGLVEMKQGEGTYLKEFELNQISQPLSAALLMKKEDVKQLLEVRKLLEIGVASLAAEKRTEADLERIQDALKEMGSIEADGELGEKADFAFHLALADASQNELLKHLMNHVSSLLLETMRETRKIWLFSKKTSVQRLYEEHERIYNAVAAGNGAQAEAAMLAHLTNVEDVLSGYFEENVQ", "soluble on expression in E. coli": "soluble"}
{"sequence": "MSLGSGHAGKARSAVTTTDADWKPVADALGRSGKLGDNNTAYRINLPRNDLHITSYGVDIKPGLSLGGYAAFARYDNNETLLMGDLVITEEELPKVTDALQAHGIAQTALHKHLLQQDPPVWWTHIHGMGDAARLAQGLKAALDATTIGPPTPPPARQPPVDIDVAGVDQALGRKGTQDGGLMKYSIPRKDTIIEDGHVLPAVSLNLTTVINFQPVGRGRAAINGDFILIAPEVQEVIRAMRAGNITIVELHNHGLTEEPRLFYMHYWAVDDAVTLARALRPAMDATNLQSEGHHHHHH", "soluble on expression in E. coli": "soluble"}
{"sequence": "MAHHHHHHMGTLEAQTQGPGSMAKTMKAAVVRAFGKPLTIDEVPIPQPGPGQIQVAIQASGVCHTDLHAAEGDWPVKPNPPFIPGHEGVGFVSAVGSGVKHVKEGDRVGIPWLYTACGHCRHCLGGWETLCEEQLNTGYSVNGGFAEYVVADPNFVGHLPKNIDFNEIAPVLCAGVTVYKGLKVTDTKPGDWVVISGIGGLGHMAVQYARAMGLNVAAVDIDDRKLDLARRLGATVTVNAKTVADPAAYIRKETDGGAQGVLVTAVSPKAFEQALGMVARGGTVSLNGLPPGDFPLSIFNMVLNGVTVRGSIVGTRLDLQESLDFAADGKVKATIQTGKLEDINAIFDDMRQGNIEGRIVMDLTQ", "soluble on expression in E. coli": "soluble"}
